{"source": "patent US20240261340A1", "about": "“Cutibacterium Acnes Biomimetic, Prebiotic, Probiotic and Postbiotic Compositions for Treatment of Skin Conditions” (Johnson & Johnson Consumer Inc., priority 2023, published 2024)", "molecules": {"B1": {"name": "Adiponectin (protein, UniProt Q15848 19-244, looked up)", "Adiponectin": "ETTTQGPGVLLPLPKGACTGWMAGIPGHPGHNGAPGRDGRDGTPGEKGEKGDPGLIGPKGDIGETGVPGAEGPRGFPGIQGRKGEPGEGAYVYRSAFSVGLETYVTIPNMPIRFTKIFYNQQNHYDGSTGKFHCNIPGLYYFAYHITVYMKDVKVSLFKKDKAMLFTYDQYQENNVDQASGSVLLHLEVGDQVWLQVYGEGERNGLYADNDNDSTFTGFLLYHDTN", "notes": "known in the literature to induce lipid production in cell cultures; positive control (Sigma)"}}, "system": "Normal Human Epidermal Keratinocytes (NHEK)", "test": "Lipid accumulation fluorescence assay (AdipoRed) on NHEK total lipids", "assay_type": "cell-based", "details": "10 μg/ml, positive control", "protocol": "Lipid accumulation using a fluorescence assay was then assessed. In particular, following the results of the transcriptomic analysis, NHEK were treated for 6 days with conditioned media at concentrations of 0.1, 0.5, 1, and 2%. Adiponectin 10 μg/ml (Sigma, St Quentin Fallavier, France), known in the literature to induce lipid production in cell cultures, was used as positive control. To quantify and visualize total lipids after the 6 days of treatment, cells were treated with AdipoRed™ Assay Reagent (Lonza, Verviers, Belgium) a lipophilic reagent which fluoresces (excitation: 485 nm, emission: 572 nm). The intensity of the fluorescence is proportional to the lipid concentration and can be measured using a spectrophotometer (Envision, Perlin Elmer, Villebon-sur-Yvette, France). Images were acquired using a fluorescence microscope (Axio imager, ZEISS, Rueil Malmaison France) with magnification ×20.\nAdiponectin induced an increase in fluorescence signal after 6 days of treatment (+25%) which validated the test. […] This experiment was repeated increasing the concentration of the conditioned media to 5% and 10% and reducing the time of treatment to 1 day. Non-conditioned media at 5% and 10% were also tested as negative controls and Adiponectin (10 μg/ml) as positive control.", "data": [{"molecule": "B1", "values": [{"measurement": "increase in fluorescence (total lipids)", "setting": "1 day of treatment", "result": 250, "unit": "%"}, {"measurement": "increase in fluorescence signal (total lipids)", "setting": "6 days of treatment", "result": "+25%"}]}]}
